According to PMC7946963, “Phosphorylation regulates the binding of autophagy receptors to FIP200 Claw domain for selective autophagy initiation” (Nature Communications, 2021):
Square brackets hold non-standard residues; d marks the D form. Ends that are not written are not given here. * marks the point of attachment. FITC = O=C1OC2(c3ccc(O)cc3Oc3cc(O)ccc32)c2ccc(NC(=S)*)cc21; pS = N[C@@H](COP(=O)(O)O)C(=O)O

B5: FIP200 Claw domain (residues 1490–1594) (domain or fragment, human, UniProt Q8TDY2 1490-1594, looked up)
chain: SRHSEKIAIRDFQVGDLVLIILDERHDNYVLFTVSPTLYFLHSESLPALDLKPGEGASGASRRPWVLGKVMEKEYCQAKKAQNRFKVPLGTKFYRVKAVSWNKKV
notes: 15N-labelled in the NMR titrations; also called RB1CC1; source: E. coli BL21 (DE3), purified (Ni-NTA, size-exclusion chromatography); not shown: Trx (inferred from the cleaved 3C protease site), N-terminal, cleaved; His6, N-terminal, cleaved
B6: nano-FIP200(1450–1594) (domain or fragment, human, UniProt Q8TDY2 1450-1594, looked up)
chain: HMLSEEKQRIMLLERTLQLKEEENKRLNQRLMSQSMSSVSSRHSEKIAIRDFQVGDLVLIILDERHDNYVLFTVSPTLYFLHSESLPALDLKPGEGASGASRRPWVLGKVMEKEYCQAKKAQNRFKVPLGTKFYRVKAVSWNKKV
notes: FIP200 (RB1CC1), human, residues 1450-1594; the construct of the analytical gel filtration with Optineurin fragments; also called FIP200 Claw domain; source: E. coli BL21 (DE3), purified (Ni-NTA, size-exclusion chromatography)

Experiments:
[1] = target: B5; experiment: fluorescence polarisation; FITC-labeled peptide (~0.25 μM) titrated with increasing amounts of protein; 20 mM Tris pH 7.9, 100 mM NaCl, 1 mM DTT, 25 °C; one-site binding model; conditions: both partners purified
nano-FIP200(1450–1594) = target: B6; experiment: SEC; analytical gel filtration of purified proteins and their mixtures; Superose 200 increase 10/300 GL; 20 mM Tris-HCl pH 7.9, 100 mM NaCl, 1 mM DTT; conditions: both partners purified
[2] = target: the molecule itself; experiment: AUC; sedimentation velocity, 142,250 x g, 20 °C; FIP200(1490–1594) alone, CCPG1 FIR2 S104E alone, and FIP200(1490–1594) mixed with excess CCPG1 FIR2 S104E
[3] = target: T1, p-Optineurin(33–209), Optineurin(33–209) phosphorylated by TBK1 (human, UniProt Q96CV9 33-209, phosphoserine at 177 (the major site phosphorylated by TBK1, by mass spectrometry)); experiment: SEC; analytical gel filtration of purified proteins and their mixtures; Superose 200 increase 10/300 GL; 20 mM Tris-HCl pH 7.9, 100 mM NaCl, 1 mM DTT; conditions: both partners purified
T1 construct: S177 is called the major site; other phosphorylated sites are not excluded; source: E. coli BL21 (DE3), purified; phosphorylated in vitro by purified Trx-TBK1(1–674) from Sf9 cells

GABARAP = target: T2, GABARAP (UniProt O95166 1-117); experiment: fluorescence polarisation; FITC-labeled peptide (~0.25 μM) titrated with increasing amounts of protein; 20 mM Tris pH 7.9, 100 mM NaCl, 1 mM DTT, 25 °C; one-site binding model; conditions: both partners purified
T2 construct: GABARAP, one of the six mammalian ATG8 family proteins; construct not described; also called ATG8 family protein; mammalian ATG8 orthologue; source: bacteria (15N-labelled form grown in M9 minimal medium); construct not described

[4] = target: B5; experiment: AUC; sedimentation velocity, 142,250 x g, 20 °C; FIP200(1490–1594) alone, CCPG1 FIR2 S104E alone, and FIP200(1490–1594) mixed with excess CCPG1 FIR2 S104E; conditions: both partners purified

T1 sequence (Q96CV9 33-209): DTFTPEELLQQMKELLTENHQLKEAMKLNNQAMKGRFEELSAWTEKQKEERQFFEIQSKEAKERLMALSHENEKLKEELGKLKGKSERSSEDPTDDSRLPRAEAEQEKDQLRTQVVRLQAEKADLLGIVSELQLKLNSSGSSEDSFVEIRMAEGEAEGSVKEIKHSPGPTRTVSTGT
T2 sequence (O95166 whole entry): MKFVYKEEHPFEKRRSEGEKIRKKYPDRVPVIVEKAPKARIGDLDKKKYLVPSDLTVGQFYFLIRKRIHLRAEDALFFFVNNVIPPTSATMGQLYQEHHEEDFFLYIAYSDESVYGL

B1: Optineurin LIR synthetic peptide (un-phosphorylated) (peptide)
peptide: {FITC}-SSEDSFVEIRMAE
notes: Optineurin, human, LIR region; also called un-phosphorylated Optineurin LIR peptide; source: synthetic peptide, bought: ChinaPeptides (>98% pure)
Kd [1]: ~307 µM

B2: Optineurin(169–185) S177E (phosphomimetic mutant) (domain or fragment, human, UniProt Q96CV9 169-185, looked up)
chain: NSSGSSEDEFVEIRMAE
notes: also called S177E mutant of Optineurin LIR; source: E. coli BL21 (DE3), purified (Ni-NTA, size-exclusion chromatography)
binding result (nano-FIP200(1450–1594)): binds

B3: Optineurin(169–185) S177E/F178W (domain or fragment, human, UniProt Q96CV9 169-185, looked up)
chain: NSSGSSEDEWVEIRMAE
notes: also called F178 of the S177E mutant of Optineurin LIR replaced by Trp; source: E. coli BL21 (DE3), purified (Ni-NTA, size-exclusion chromatography)
binding result (nano-FIP200(1450–1594)): binds

B4: Optineurin(169–185) S177E/F178Y (domain or fragment, human, UniProt Q96CV9 169-185, looked up)
chain: NSSGSSEDEYVEIRMAE
notes: also called F178 of the S177E mutant of Optineurin LIR replaced by Tyr; source: E. coli BL21 (DE3), purified (Ni-NTA, size-exclusion chromatography)
binding result (nano-FIP200(1450–1594)): binds

B5
stoichiometry N [2]: 2

B6
binding result [3]: binds

B7: CCPG1 FIR2 synthetic peptide (residues 99–113) (peptide)
peptide: TASDDSDIVTLEPPK
modifications: also: FITC on N-terminus in fluorescence polarisation assay only
notes: The results speak of a 13-residue peptide; also called un-phosphorylated CCPG1 FIR2; wild-type CCPG1 FIR2; source: synthetic peptide, bought: ChinaPeptides (>98% pure)
Kd (GABARAP): ~27 µM | binding result [1]: binds

B8: CCPG1 FIR2 S104E (phosphomimetic mutant, residues 99–113) (domain or fragment, human, UniProt Q9ULG6 99-113, looked up)
chain: TASDDEDIVTLEPPK
notes: CCPG1, human, FIR2, residues 99-113; also called phosphomimetic S104E mutant of CCPG1 FIR2; source: E. coli BL21 (DE3), purified (Ni-NTA, size-exclusion chromatography)
stoichiometry N [4]: 1 CCPG1 FIR2 S104E per FIP200 chain (2:2)

B9: S177-phosphorylated Optineurin LIR synthetic peptide (p-Optineurin LIR) (peptide)
peptide: SSED[pS]FVEIRMAE
modifications: also: N-terminal FITC in fluorescence polarisation assay only
notes: source: synthetic peptide, bought: ChinaPeptides (>98% pure)
Kd [1]: ~12 µM
